Test results from US9926349B2, “Chimeric molecule useful in immunotherapy for leishmaniasis, which includes a fragment of the PFR1 protein of leishmania infantum with specific immunodominant epitopes” (priority 2011, dated 2018).

Test system: alveolar macrophages of naive rat
Test: Nitric oxide production by alveolar macrophages stimulated with recombinant protein
Assay type: cell-based
Conditions: for NO activation in the presence of polymyxin B: plus polymyxin B (LPS activity-induced inhibitor)
From the text: FIG. 2. Measurement of Nitric Oxide (NO) concentration in the supernatant of macrophages culture stimulated with lipopolysaccharide (LPS); lipopolysaccharide+polymyxin B (LPS+PolB); purified PFR-1 protein (PFR-1); purified PFR-1 protein+polymyxin B (PFR1+PolB); L-NG-monomethyl arginine citrate (LNMMA); purified PFR-1 protein+L-NG-monomethyl arginine citrate (PFR1+LNMMA). Concentration is expressed in μmol/liter.
PFR1 protein of Leishmania infantum is encompassed within the family of characteristic proteins of paraflagellar rod proteins from kinetoplastids. In FIG. 1, we show the PFR1 recombinant protein of L. infantum expressed in a prokaryotic expression system and purified by affinity chromatography. […] This activation of nitric oxide production confers to the aforementioned protein a relevant immunological feature because NO favors the clearance of the amastigotes of Leishmania that multiply within the host macrophages. In FIG. 2, the values of NO production by these alveolar macrophages are collected by stimulating them with LPS (control) and the PFR1 protein.

Molecule | NO activation in the presence of polymyxin B | production of nitric oxide (NO) by alveolar macrophages (naive rat alveolar macrophages stimulated with the protein) | NO activation in the presence of LNMMA (plus L-NG-monomethyl arginine, nitric oxide synthase inhibitor)
lipopolysaccharide [LPS, reference compound] | inhibited by the presence of polymyxin B | – | –
PFR1 protein: PFR1 recombinant protein of L. infantum expressed in a prokaryotic expression system and purified by affinity chromatography (protein, listed as Leishmania infantum, /mol_type=”protein“ /organism=”Leishmania infantum“; REGION 1..595 ”PFR1 protein aminoacids“; REGION 160..595 ”SEQ ID No 9“; REGION 160..548 ”SEQ ID No 10“; REGION 160..385 ”SEQ ID No 11“; PEPTIDE 103..113 ”SEQ ID No 1“; PEPTIDE 150..159 ”SEQ ID No 2“; PEPTIDE 165..173 ”SEQ ID No 4“; PEPTIDE 204..212 ”SEQ ID No 5“; PEPTIDE 222..230 ”SEQ ID No 6“; PEPTIDE 373..382 ”SEQ ID No 3“) MMTPEDATGLEAARKQKIHNLKLKTACLENEELVQELHISDWSETQRQKLRGAHEKGEELLASVEVGTKWNLMEAYDLAKLMRVCGLEMSQRELYRPEDKPQFMDIIGVKKVLQDLRQNRNKTRVVSFTQLIDNSIAKMEKVEEELRRSQLDATQLAQVPTRTVKMMEDIMNATQIQNALASTDDQMQTQLAQLEKTNEIQNVAMHDGETQVAEEQMWTKVQLQERLIELLKDKFGLIGKCEEENAQFKEIYEVQKQANQETSQMKDAKRRLRQRCETDLKHIQDAIQKADLEDAEAVKRYPRNKERSERAIKENEEMQEEAWNKIQDLERQLQNLGTDRFDEVKRRIEEVDREEKRRVENAQFLEIAAQHKKLLELTVYNCDLAMRCTGLVEELVSEGCAGVKARYDKTNQDLAALRLEVHKEHLEYFRMLYLTLGSLIYKKEKRLEEIDRNIRLAHIQLEFCVETFDPNAKKHADMKKELYRLRQGVEEELAMLKEKQAAALDDFKESEEALDAAGIEFSHPVDENNEEVLTRRSKMVEYKSHLTKEEEVRIAAEREEIKRARLLRSGGESAAAQITSGSMNADYAASAQLEL | unlike the one detected for PFR1 protein, the activation observed for LPS is inhibited by the presence of polymyxin B | ability to activate the production of nitric oxide (NO) | inhibits the NO activation induced by the PFR1 protein
